From paper PMC7545097, “Mapping the native interaction surfaces of PREP1 with PBX1 by cross-linking mass-spectrometry and mutagenesis” (Scientific Reports, 2020)

What was measured:
Assay in all cases: time-resolved fluorescence immunoassay (TR-FIA); plate coated with monoclonal anti-PBX1; PBX1 pre-incubated with PREP1 or MEIS1 for 1 h on ice, 10 µg/mL in 1% BSA PBS, 1 h at room temperature on the plate; detected with anti-PREP1 or biotinylated anti-MEIS1/2 and Eu^3+ conjugates; normalised to the wild-type protein taken as 1
Conditions in all cases: both partners purified
[1] = molecular target: T1, PREP1 L66A (UniProt P55347 1-436, L66A)
T1 construct: PREP1 (PKNOX1), residues 1-436
T1 sequence (looked up): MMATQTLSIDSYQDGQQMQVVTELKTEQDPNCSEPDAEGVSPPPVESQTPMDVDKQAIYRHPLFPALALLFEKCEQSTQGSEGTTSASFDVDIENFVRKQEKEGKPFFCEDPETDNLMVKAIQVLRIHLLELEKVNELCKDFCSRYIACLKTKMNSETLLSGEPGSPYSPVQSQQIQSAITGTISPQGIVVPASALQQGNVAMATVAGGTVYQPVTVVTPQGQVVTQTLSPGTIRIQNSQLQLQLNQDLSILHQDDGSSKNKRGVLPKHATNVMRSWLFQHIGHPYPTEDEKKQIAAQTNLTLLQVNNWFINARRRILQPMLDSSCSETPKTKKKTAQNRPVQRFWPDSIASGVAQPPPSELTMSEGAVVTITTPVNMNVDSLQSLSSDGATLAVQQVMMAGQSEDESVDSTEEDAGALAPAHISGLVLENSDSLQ

[2] = molecular target: T2, PREP1 L67A (UniProt P55347 1-436, L67A)
T2 construct: PREP1 (PKNOX1), residues 1-436
T2 sequence (looked up): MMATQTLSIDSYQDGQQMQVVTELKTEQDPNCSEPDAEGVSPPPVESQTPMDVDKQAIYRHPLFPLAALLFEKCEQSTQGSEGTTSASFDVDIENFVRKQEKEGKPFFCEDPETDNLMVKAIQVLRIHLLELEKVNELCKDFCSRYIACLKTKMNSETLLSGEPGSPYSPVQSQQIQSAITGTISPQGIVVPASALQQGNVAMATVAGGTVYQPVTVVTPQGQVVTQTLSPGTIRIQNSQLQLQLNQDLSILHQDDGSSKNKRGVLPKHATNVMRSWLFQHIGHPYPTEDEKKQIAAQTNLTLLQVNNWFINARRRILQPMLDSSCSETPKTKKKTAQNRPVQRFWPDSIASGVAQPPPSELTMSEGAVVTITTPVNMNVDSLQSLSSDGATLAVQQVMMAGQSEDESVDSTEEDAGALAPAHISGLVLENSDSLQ

[3] = molecular target: T3, PREP1 L69A (UniProt P55347 1-436, L69A)
T3 construct: PREP1 (PKNOX1), residues 1-436
T3 sequence (looked up): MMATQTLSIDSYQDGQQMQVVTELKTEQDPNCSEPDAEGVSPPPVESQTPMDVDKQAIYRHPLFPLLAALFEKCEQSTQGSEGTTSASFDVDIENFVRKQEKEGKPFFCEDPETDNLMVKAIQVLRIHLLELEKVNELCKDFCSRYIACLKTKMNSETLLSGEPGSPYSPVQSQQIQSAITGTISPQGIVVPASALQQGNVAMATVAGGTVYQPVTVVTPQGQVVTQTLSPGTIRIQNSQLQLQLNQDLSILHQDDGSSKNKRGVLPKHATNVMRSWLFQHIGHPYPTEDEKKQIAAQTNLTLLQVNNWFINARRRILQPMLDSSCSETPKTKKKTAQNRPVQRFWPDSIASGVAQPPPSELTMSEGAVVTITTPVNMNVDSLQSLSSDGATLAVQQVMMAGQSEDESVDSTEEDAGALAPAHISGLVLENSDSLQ

[4] = molecular target: T4, PREP1 L129A (UniProt P55347 1-436, L129A)
T4 construct: PREP1 (PKNOX1), residues 1-436
T4 sequence (looked up): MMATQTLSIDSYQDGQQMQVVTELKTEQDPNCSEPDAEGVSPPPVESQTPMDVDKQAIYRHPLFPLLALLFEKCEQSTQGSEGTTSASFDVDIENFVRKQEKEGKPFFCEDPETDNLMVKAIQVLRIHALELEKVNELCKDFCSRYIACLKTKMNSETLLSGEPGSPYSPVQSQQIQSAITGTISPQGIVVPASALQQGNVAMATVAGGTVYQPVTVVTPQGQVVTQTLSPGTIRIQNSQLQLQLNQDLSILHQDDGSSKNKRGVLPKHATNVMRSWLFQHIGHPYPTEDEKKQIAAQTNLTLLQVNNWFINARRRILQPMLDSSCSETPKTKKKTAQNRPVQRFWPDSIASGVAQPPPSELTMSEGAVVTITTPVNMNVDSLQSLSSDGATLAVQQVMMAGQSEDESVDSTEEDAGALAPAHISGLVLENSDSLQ

binding result [1]: binds
binding result [2]: binds
binding result [3]: binds
binding result [4]: binds
B1: PBX1_(1-430), wild-type recombinant (natural protein, human, UniProt P40424 1-430, looked up)
chain: MDEQPRLMHSHAGVGMAGHPGLSQHLQDGAGGTEGEGGRKQDIGDILQQIMTITDQSLDEAQARKHALNCHRMKPALFNVLCEIKEKTVLSIRGAQEEEPTDPQLMRLDNMLLAEGVAGPEKGGGSAAAAAAAAASGGAGSDNSVEHSDYRAKLSQIRQIYHTELEKYEQACNEFTTHVMNLLREQSRTRPISPKEIERMVSIIHRKFSSIQMQLKQSTCEAVMILRSRFLDARRKRRNFNKQATEILNEYFYSHLSNPYPSEEAKEELAKKCGITVSQVSNWFGNKRIRYKKNIGKFQEEANIYAAKTAVTATNVSAHGSQANSPSTPNSAGSSSSFNMSNSGDLFMSVQSLNGDSYQGAQVGANVQSQVDTLRHVISQTGGYSDGLAASQMYSPQGISANGGWQDATTPSSVTSPTEGPGSVHSDTSN
notes: also called wild-type PBX1; purified recombinant human PBX1; source: E. coli, purified
